Experimental data published in patent US20190112365A1 (EISAI R AND D MANAGEMENT, published 2019).
“And” between values parts separate entries of the source, which are not always exact repeats. Equal entries are not always repeated.

T1: HVPGG site of Tau (15-mer array peptides containing HVPGG) (human)
T1 peptide: HVPGG


Tests used:
[1] = biological target: T2, Human Tau 2N4R, wild type, recombinant full length (human, UniProt P10636 2-758); assay: SPR BIAcore, anti-human capture, monomeric Tau, 1:1 Langmuir
T2 construct: Full length 2N4R isoform; monomer in SPR and ELISA; heparin-induced aggregates or seeds in the functional assays; also called Tau441; Tau-441
Method: (§1) All experiments were performed using a BIAcore™ T-100 instrument (GE Healthcare). 10 μL anti-human IgG (monoclonal mouse anti-human Fc) from human antibody capture kit (GE Healthcare) was diluted to 25 μL/mL in 200 μL final immobilization buffer (10 mM sodium acetate, pH 5.0). The flow rate was set to 5 μL/min, flowpath 1. Fifty μL N-hydroxysuccinamide (NETS) and 50 μL 1-ethyl-3-(3-dimethylaminopropyl) carbidiimide (EDC) were mixed and injected for 420 sec to activate the CM5 chip surface. The diluted antibody was injected for 360 seconds followed by 1 M ethanolamine for 420 seconds. The flowpath was then switched to flowpath 2. A new EDC/NHS mixture was prepared and the procedure was repeated for flow cell 2. The surface was conditioned by 2 injections of 30 sec using flowpath 1, 2 at 30 μL/min of 3M MgCl₂. For the anti-mouse surface, 10 μL anti-mouse IgG (polyclonal rabbit anti-mouse IgG) from mouse antibody capture kit (GE Healthcare) was diluted to 30 μL/mL in 324 μL final immobilization buffer (10 mM sodium acetate, pH 5.0). The flow rate was set to 5 μL/min, flowpath 3. Fifty μL NHS and 50 μL EDC were mixed and injected for 420 sec to activate the chip surface. The diluted antibody was injected for 420 sec. 1 M ethanolamine was injected for 420 sec. Flow path was switched to flowpath 4. A new EDC/NHS mixture was prepared and the procedure was repeated for flow cell 4. The surface was conditioned by 2 injections of 30 sec using flowpath 3, 4 at 30 μL/min of 10 mM glycine, pH 1.7.
Tau binding for humanized mAbs was analyzed by BIAcore™ in two different formats. The first format was performed as above, i.e. mAbs were captured with an immobilized species-specific anti-Fc antibody. […] In the second format, biotinylated mAbs were captured on a streptavidin-coated chip. This latter format allowed direct comparison of Tau binding affinity between humanized and the parental mouse antibody since the capture method was identical.
The final humanized mAbs were analyzed by BIAcore™ to determine the kₐ, kd, and KD for binding to Tau as above (Table 10).

[2] = biological target: T1, HVPGG site of Tau (15-mer array …); assay: peptide microarray; HVPGG site of the second repeat region against HQPGG (repeat region 1)
Method: (§2) The diluted antibody was incubated on the chip for 16 hours at 4° C. with shaking at 140 rpm. Primary antibody was removed and the chip was washed in PBS (pH 7.4)/0.05% Tween 20. Wash buffer was removed and goat anti-mouse IgG (H+L) DyLight™680 (1:5000) and an anti-HA tag DyLight™ 800 (1:2000) in the same buffer as the primary antibody was then incubated for 45 minutes at room temperature on the chip. Detection antibody was removed and the chip was washed once again as previously. Fluorescence images were acquired on the LI-COR Odyssey™ Imaging System and the microarray data was finally analyzed using the PepSlide™ Analyser software.

[3] = biological target: T1, HVPGG site of Tau (15-mer array …); assay: peptide microarray; HVPGG site of the fourth repeat region against HKPGG (repeat region 3)
Method: as §2

[4] = biological target: T1, HVPGG site of Tau (15-mer array …); assay: peptide microarray; HVPGG site of the second repeat region against HKPGG (repeat region 3)
Method: as §2

[5] = biological target: T2, Human Tau 2N4R, wild type, recombinant …; assay: SPR, streptavidin capture; against ms7G6
Method: (§3) 400 μg of each antibody was diluted to 2 mg/mL and buffer-exchanged into 0.1 M sodium bicarbonate, pH 8.3 using 0.5 mL Zeba™ 40 kDa MWCO desalting columns (Thermo). NHS-PEG4-biotin, prepared immediately before use by dissolving in water to a 20 mM final stock concentration, was added to antibodies at a 5:1 molar ratio (biotin:MAb) and conjugated for 1 hr at room temperature. Excess biotin was removed by two sequential buffer exchanges into 1×DPBS using 0.5 mL Zeba™ 40 kDa MWCO desalting columns. For the BIAcore™ assay, antibodies were diluted to 2 μg/mL in PBS-P+/0.2% BSA (the same preparation used for the running buffer), centrifuged at 14,000 g for 5 min at room temperature, and the supernatant transferred to a new tube. Injection time was subsequently determined for each antibody to achieve a capture level of ˜225 RU.
(§4) Biotinylated humanized and mouse mAbs were captured on a streptavidin-coated chip and kₐ, kd, and KD were determined for binding to Tau (Table 11). […] The affinity of 7G6-HCzu8-LCzu6, 7G6-HCzu24-LCzu15, 7G6-HCzu24-LCzu18, 7G6-HCzu25-LCzu15, and 7G6-HCzu25-LCzu18 were all similar.

[6] = biological target: T2, Human Tau 2N4R, wild type, recombinant …; assay: SPR BIAcore, biotinylated mAb on streptavidin (CAP) chip, single cycle, 1:1 Langmuir
Method: as §3, §4

[7] = biological target: T2, Human Tau 2N4R, wild type, recombinant …; assay: SPR BIAcore, mAb captured by anti-human IgG, Tau flowed, 1:1 Langmuir
Method: as §1
Binding of humanized and mouse antibodies were analyzed by surface plasmon resonance (BIAcore™) to determine their relative association rates (kₐ), dissociation rates (kd), and equilibrium binding constants (KD). Anti-mouse or anti-human antibodies were immobilized on a CM5 chip and sample mAbs were captured on the chip. 2N4R Tau was flowed over the chip and binding observed. The binding constants kₐ, kd, and KD were determined using a 1:1 Langmuir fitting model.

[8] = biological target: T1, HVPGG site of Tau (15-mer array …); assay: peptide microarray; HVPGG site of the fourth repeat region against HQPGG (repeat region 1)
Method: as §2

[9] = biological target: T2, Human Tau 2N4R, wild type, recombinant …; assay: SPR, streptavidin capture; against 7G6-HCzu24 and 7G6-HCzu25 mAbs
Method: as §3, §4

[10] = biological target: T2, Human Tau 2N4R, wild type, recombinant …; assay: SPR BIAcore, anti-human Fc capture, multi-cycle, 1:1 Langmuir, average of flow cells
Method: A 0 nM Tau protein solution was prepared by adding 3 mL Assay Running Buffer to labeled 5 mL tube. Analyte dilutions were transferred to labeled 4 mL plastic vials and capped with type 5 caps, vortexed briefly to remove any air bubbles adhered to tube walls or bottom, and placed in Sample and Reagent Rack 1. For chip conditioning analyte sample, 5 μL of 1 μM Tau protein solution supernatant was removed and diluted to 500 μL in Assay Buffer in a 7 mm plastic vial, capped, vortexed briefly to dislodge adhered air bubbles, and placed in Sample and Reagent Rack 1. Humanized antibodies were captured on flow cells 2, 3, and 4 sequentially at a flow rate of 10 μL/min for a contact time of 36 sec. Dilutions of Tau protein were injected over all 4 flow cells at a flow rate of 30 μL/min for a contact time of 300 sec. Dissociation was followed for 1800 sec. Following each cycle, the surface was regenerated by two sequential injections of 30 sec at 30 μL/min of 3 M MgCl₂ over all four flow cells. After the run, kinetic data fitting was performed using a 1:1 Langmuir model.
The affinity of recombinant human wild-type 2N4R Tau protein to 7G6-HCzu25LCzu18 antibody was determined using an antibody-capture format assay. Following capture of 7G6-HCzu25LCzu18 antibody, human Tau protein was injected over the ligand surface for 300 sec, followed by observation and measurement of dissociation for 1800 sec. After each antibody capture, Tau protein binding, and dissociation cycle, the chip surface was regenerated to the anti-human antibody capture surface using 3M MgCl₂, as required by the manufacturer. Tau protein was analyzed in a concentration range from 100 nM to 0.046 nM (3-fold diluted). The assay was performed in multi-cycle mode, such that a dissociation was performed for each tau protein injection. Each ligand was analyzed on all three flow cells (fc2, fc3, and fc4) in triplicate, in order to eliminate any flow cell-specific effects.
Binding data was double-referenced, meaning referenced to both fc1 with no ligand bound and to buffer analyte injections (0 nM Tau protein). […]

T2 sequence (P10636 other isoform, or with tags, fused parts or gaps limits assumed): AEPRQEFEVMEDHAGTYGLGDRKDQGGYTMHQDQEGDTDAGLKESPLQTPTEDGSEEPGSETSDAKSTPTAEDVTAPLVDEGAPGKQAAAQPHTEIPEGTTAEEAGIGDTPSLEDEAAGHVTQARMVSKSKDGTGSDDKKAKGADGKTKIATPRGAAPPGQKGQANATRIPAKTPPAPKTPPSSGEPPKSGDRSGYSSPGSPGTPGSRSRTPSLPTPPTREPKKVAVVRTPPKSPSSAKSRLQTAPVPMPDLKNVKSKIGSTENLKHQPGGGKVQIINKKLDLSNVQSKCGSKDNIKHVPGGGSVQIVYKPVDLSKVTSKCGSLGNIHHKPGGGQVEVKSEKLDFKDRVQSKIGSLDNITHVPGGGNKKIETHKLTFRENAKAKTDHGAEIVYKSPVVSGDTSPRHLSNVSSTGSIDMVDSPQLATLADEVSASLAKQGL

Row | Kd [1] [nM] | koff [1] [s⁻¹] | kon [1] [M⁻¹ s⁻¹] | fold preference in binding (average signal intensities) [2] [fold] | fold preference in binding (average signal intensities) [3] [fold] | fold preference in binding (average signal intensities) [4] [fold] | fold drop in affinity [5] [fold] | Kd [6] [nM] | koff [6] [s⁻¹] | kon [6] [M⁻¹ s⁻¹] | Kd [7] [nM] | koff [7] [s⁻¹] | kon [7] [M⁻¹ s⁻¹] | fold preference in binding (average signal intensities) [8] [fold] | fold drop in affinity [9] [fold] | Kd [10] | koff [10] | kon [10] | Binder
1 | 0.15 | 0.00022 | 1.49e+06 | 108 | 95 | 104 | ~1.4 | 0.0915 | 0.000258 | 2.82e+06 | 0.0968 | 0.00021 | 2.17e+06 | 99 | – | – | – | – | 7G6-HCzu8-LCzu6 (antibody, human IgG1, kappa, V domains shown, N-terminal pyroglutamic acid, humanized, human IgG1 kappa; also called 7G6-HCzu8-LCzu6-HEK; ATCC PTA-124523) VH: QVQLVQSGAEVKKPGASVKVSCKASGYTFTTYWITWVRQAPGQGLEWMGDIYPGSSISNYAQKFQGRVTMTRDTSTSTVYMELSSLRSEDTAVYYCAREDGYDAWFAYWGQGTLVTVSS VL: DVVMTQSPLSLPVTLGQPASISCRSSQSILHSNGNTYLEWYQQRPGQSPRLLISKVSNRFSGVPDRFSGSGSGTDFTLKISRVEAEDVGVYYCFQGSHVPFTFGQGTKLEIKR
2 | 0.25 | 0.00039 | 1.61e+06 | – | – | – | – | 0.152 | 0.000332 | 2.18e+06 | – | – | – | – | ~2 | – | – | – | 7G6-HCzu23-LCzu15 (antibody, human IgG1, kappa, humanized, human IgG1 kappa) heavy: not shown light: DVQMTQSPSSLSASVGDRVTITCRSSQSILHSNGNTYLEWYQQKPGKAPKLLISKVSNRFSGVPSRFSGSGSGTDFTLTISSLQPEDFATYYCFQGSHVPFTFGQGTKLEIKRTVAAPSVFIFPPSDEQLKSGTASVVCLLNNFYPREAKVQWKVDNALQSGNSQESVTEQDSKDSTYSLSSTLTLSKADYEKHKVYACEVTHQGLSSPVTKSFNRGEC
3 | 0.22 | 0.00037 | 1.71e+06 | – | – | – | – | 0.182 | 0.00039 | 2.14e+06 | – | – | – | – | ~2 | – | – | – | 7G6-HCzu23-LCzu18 (antibody, human IgG1, kappa, humanized, human IgG1 kappa) heavy: not shown light: DIQMTQSPSSLSASVGDRVTITCRSSQSILHSNGNTYLEWYQQKPGKAPKLLISKVSNRFSGVPSRFSGSGSGTDFTLTISSLQPEDFATYYCFQGSHVPFTFGQGTKLEIKRTVAAPSVFIFPPSDEQLKSGTASVVCLLNNFYPREAKVQWKVDNALQSGNSQESVTEQDSKDSTYSLSSTLTLSKADYEKHKVYACEVTHQGLSSPVTKSFNRGEC
4 | 0.09 | 9e-05 | 948000 | – | – | – | ~1.4 | 0.0797 | 0.000304 | 3.81e+06 | – | – | – | – | – | – | – | – | 7G6-HCzu24-LCzu18 (antibody, human IgG1, kappa, humanized, human IgG1 kappa) heavy: not shown light: DIQMTQSPSSLSASVGDRVTITCRSSQSILHSNGNTYLEWYQQKPGKAPKLLISKVSNRFSGVPSRFSGSGSGTDFTLTISSLQPEDFATYYCFQGSHVPFTFGQGTKLEIKRTVAAPSVFIFPPSDEQLKSGTASVVCLLNNFYPREAKVQWKVDNALQSGNSQESVTEQDSKDSTYSLSSTLTLSKADYEKHKVYACEVTHQGLSSPVTKSFNRGEC
5 | 0.13 | 0.00013 | 985000 | – | – | – | ~1.4 | 0.0998 | 0.00027 | 2.71e+06 | – | – | – | – | – | – | – | – | 7G6-HCzu25-LCzu15 (antibody, human IgG1, kappa, humanized, human IgG1 kappa) heavy: not shown light: DVQMTQSPSSLSASVGDRVTITCRSSQSILHSNGNTYLEWYQQKPGKAPKLLISKVSNRFSGVPSRFSGSGSGTDFTLTISSLQPEDFATYYCFQGSHVPFTFGQGTKLEIKRTVAAPSVFIFPPSDEQLKSGTASVVCLLNNFYPREAKVQWKVDNALQSGNSQESVTEQDSKDSTYSLSSTLTLSKADYEKHKVYACEVTHQGLSSPVTKSFNRGEC
6 | 0.13 | 0.00014 | 1.11e+06 | 65 | 119 | 100 | ~1.4 | 0.0881 | 0.000307 | 3.5e+06 | – | – | – | 77 | – | 0.0657 nM and 0.0659 nM and 0.0645 nM | 0.000126 s⁻¹ (2×) and 0.000123 s⁻¹ | 1.92e+06 M⁻¹ s⁻¹ and 1.91e+06 M⁻¹ s⁻¹ | 7G6-HCzu25-LCzu18 (antibody, human IgG1, kappa, humanized, human IgG1 kappa; also called 7G6-zuHC25-zuLC18; 7G6-HCzu25-LCzu18-HEK) heavy: not shown light: DIQMTQSPSSLSASVGDRVTITCRSSQSILHSNGNTYLEWYQQKPGKAPKLLISKVSNRFSGVPSRFSGSGSGTDFTLTISSLQPEDFATYYCFQGSHVPFTFGQGTKLEIKRTVAAPSVFIFPPSDEQLKSGTASVVCLLNNFYPREAKVQWKVDNALQSGNSQESVTEQDSKDSTYSLSSTLTLSKADYEKHKVYACEVTHQGLSSPVTKSFNRGEC
